Experimental data from the supplement of paper PMC7125110.
± gives the standard error. For some assays here: This sample holds only a part of the variants without activity.

B1: glmS ribozyme (parent)
chain: AUAAAAGCGCCAGAACUACAGAAAUGUAGUUGACGAGGAGGAGGUUUAUCGAAUUUUCGGCGGAUGCCUCCAAA

What was measured:
Conditions in all cases: with glucosamine-6-phosphate
[1] = variants of: B1; assay: kcat; higher = faster cleavage; RNA array
Method in brief: (§1)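 Tiles bearing barcoded ribozyme variants, transcribed in situ by E. coli RNA polymerase on sequenced MiSeq chips, were imaged over ~14 h at 37 °C using a hybridised Cy3 probe. Glucosamine-6-phosphate was supplied at 40 μM to 10 mM in HEPES/KCl/Mg(OAc)2 buffer. kobs came from one- or two-exponential decay fits to normalised per-tile medians, and weighted Michaelis–Menten fits then provided kcat and KM.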

[2] = variants of: B1; assay: self-cleavage kobs at 2500 uM GlcN6P; higher = faster cleavage; RNA array
Method in brief: as §1

[3] = variants of: B1; assay: self-cleavage kobs at 10000 uM GlcN6P; higher = faster cleavage; RNA array
Method in brief: as §1

[4] = variants of: B1; assay: self-cleavage kobs at 640 uM GlcN6P; higher = faster cleavage; RNA array
Method in brief: as §1

[5] = variants of: B1; assay: KM; higher = weaker cofactor use; RNA array
Method in brief: as §1

[6] = variants of: B1; assay: self-cleavage kobs at 40 uM GlcN6P; higher = faster cleavage; RNA array
Method in brief: as §1

[7] = variants of: B1; assay: self-cleavage kobs at 160 uM GlcN6P; higher = faster cleavage; RNA array
Method in brief: as §1

Variant	kcat [1] [s⁻¹]	self-cleavage kobs at 2500 uM GlcN6P [2] [s⁻¹]	self-cleavage kobs at 10000 uM GlcN6P [3] [s⁻¹]	self-cleavage kobs at 640 uM GlcN6P [4] [s⁻¹]	KM [5] [µM]	self-cleavage kobs at 40 uM GlcN6P [6] [s⁻¹]	self-cleavage kobs at 160 uM GlcN6P [7] [s⁻¹]
C16U A42U A64G	0.000175 ± 4.3e-05	7.15e-05 ± 1.6e-05	0.000122 ± 2.6e-05	–	–	–	–
C67U C68G	2.52e-05 ± 6.7e-06	2.57e-05 ± 1.2e-05	–	3.49e-05 ± 1.2e-05	–	–	–
C16A A39G	0.00326 ± 0.00026	0.00177 ± 0.00034	0.00273 ± 0.00053	0.000731 ± 0.00012	2130 ± 240	6.75e-05 ± 1.4e-05	0.000212 ± 5.3e-05
C10U A39G	3.18e-05 ± 4e-06	4.09e-05 ± 2e-05	2.93e-05 ± 8.6e-06	–	–	< 1e-05	–
A12C G32A	0.00031 ± 2.5e-05	0.000129 ± 1.8e-05	0.000244 ± 3.1e-05	5.72e-05 ± 1e-05	3110 ± 470	–	–
C61G G62C A64G U65A G66U C67G	1.06e-05 ± 1.8e-06	–	< 1e-05	< 1e-05	–	–	–
C11U A12C	9.58e-05 ± 3.4e-06	6.24e-05 ± 1.2e-05	8.81e-05 ± 9e-06	3.76e-05 ± 7e-06	1050 ± 120	–	–
A42U A64G	0.000148 ± 1.7e-05	0.000102 ± 1.3e-05	0.00012 ± 1.1e-05	3.08e-05 ± 7.7e-06	1930 ± 650	–	–
A14U G41A	0.000406 ± 0.00011	0.000422 ± 8.6e-05	0.000317 ± 5e-05	9.05e-05 ± 2e-05	–	–	–
U45G C71G	0.000564 ± 5.3e-05	0.000322 ± 5.2e-05	0.000432 ± 6.3e-05	0.000112 ± 1.2e-05	2510 ± 370	–	3.29e-05 ± 1.3e-05
G29A A52U	0.0001272 ± 9.8e-07	5.99e-05 ± 1.4e-05	9.97e-05 ± 1.3e-05	2.42e-05 ± 1.1e-05	2770 ± 58	< 1e-05	–
A12C C61U	1.24e-05 ± 3.6e-06	–	–	–	–	< 1e-05	–
A42G G66U	0.00257 ± 0.00027	0.00166 ± 0.00027	0.0021 ± 0.00021	0.000688 ± 8.4e-05	1900 ± 310	5.91e-05 ± 9e-06	0.000171 ± 2.6e-05
U49A U65G	< 1e-05	–	< 1e-05	–	–	–	< 1e-05
G13C G41U	3.06e-05 ± 9.2e-06	–	–	–	–	–	–
U30G U45A	0.0197 ± 0.0054	0.0101 ± 0.0026	0.0239 ± 0.0066	0.00474 ± 0.0013	1680 ± 600	0.000528 ± 9.3e-05	0.00157 ± 0.00042
